Measured values as given in IntAct's records for PubMed 20956536.

B1: Coiled-coil domain-containing protein 141 (Homo sapiens), Q6ZP82-1 (parent)
chain: MSSQGSPSVALSTTTVSSVAVQAGDSKIVIAVIKCGKWVQLQLAESQPNLLEIGSSQDETKKLLHDHELLLAKLKALEDRVWELLQEADKTAEENKDQSQVYDAMAETLGEAWAALVSMLERRTELLRLTSEFFENALEFAIKIDQAEDFLQNTHEFESAESLKSLLQLHEHHTKELLERSLALLNKSQQLTDFIEKFKCEGPNVNPELTQGAHSSCLKVDRLLELLQDRRRQLDKYLKQQWQELSQVLQICQWDQQENQVTCWFQKTIRNLQEQSLGSSLSDNEDRIHKQEELIIKAKEWNSAVEKLKSEALRILLSKDYVEKEHLQLSHQKLSQLQEEFGQLMVERNTWLKKANEFFNSANKAFDVLGRVEAYLKLLKSEGLSLAVLAVRHEELHRKIKDCTTDALQKGQTLISQVDSCSSQVSGIHEMMGCIKRRVDHLTEQCSAHKEYALKKQQLTASVEGYLRKVEMSIQKISPVLSNAMDVGSTRSESEKILNKYLELDIQAKETSHELEAAAKTMMEKNEFVSDEMVSLSSKARWLAEELNLFGQSIDYRSQVLQTYVAFLKSSEEVEMQFQSLKEFYETEIPQKEQDDAKAKHCSDSAEKQWQLFLKKSFITQDLGLEFLNLINMAKENEILDVKNEVYLMKNTMENQKAEREELSLLRLAWQLKATESKPGKQQWAAFKEQLKKTSHNLKLLQEALMPVSALDLGGSLQFILDLRQKWNDMKPQFQQLNDEVQYIMKESEELTGRGAPVKEKSQQLKDLIHFHQKQKERIQDYEDILYKVVQFHQVKEELGRLIKSRELEFVEQPKELGDAHDVQIHLRCSQEKQARVDHLHRLALSLGVDIISSVQRPHCSNVSAKNLQQQLELLEEDSMKWRAKAEEYGRTLSRSVEYCAMRDEINELKDSFKDIKKKFNNLKFNYTKKNEKSRNLKALKYQIQQVDMYAEKMQALKRKMEKVSNKTSDSFLNYPSDKVNVLLEVMKDLQKHVDDFDKVVTDYKKNLDLTEHFQEVIEECHFWYEDASATVVRVGKYSTECKTKEAVKILHQQFNKFIAPSVPQQEERIQEATDLAQHLYGLEEGQKYIEKIVTKHKEVLESVTELCESLTELEEKLKQGDVLKMNPNLEDFHYDYIDLLKEPAKNKQTIFNEERNKGQVQVADLLGINGTGEERLPQDLKVSTDKEGGVQDLLLPEDMLSGEEYECVSPDDISLPPLPGSPESPLAPSDMEVEEPVSSSLSLHISSYGVQAGTSSPGDAQESVLPPPVAFADACNDKRETFSSHFERPYLQFKAEPPLTSRGFVEKSTALHRISAEHPESMMSEVHERALQQHPQAQGGLLETREKMHADNNFTKTQDRLHASSDAFSGLRFQSGTSRGYQRQMVPREEIKSTSAKSSVVSLADQAPNFSRLLSNVTVMEGSPVTLEVEVTGFPEPTLTWWVAYNDKP
partner: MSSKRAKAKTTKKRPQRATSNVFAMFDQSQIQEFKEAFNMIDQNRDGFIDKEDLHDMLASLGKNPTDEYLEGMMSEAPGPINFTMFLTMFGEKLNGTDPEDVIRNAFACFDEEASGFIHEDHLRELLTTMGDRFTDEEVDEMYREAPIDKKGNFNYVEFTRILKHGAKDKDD
B2: Coiled-coil domain-containing protein 141 (Homo sapiens), Q6ZP82-1 (parent)
chain: B1 chain
partner: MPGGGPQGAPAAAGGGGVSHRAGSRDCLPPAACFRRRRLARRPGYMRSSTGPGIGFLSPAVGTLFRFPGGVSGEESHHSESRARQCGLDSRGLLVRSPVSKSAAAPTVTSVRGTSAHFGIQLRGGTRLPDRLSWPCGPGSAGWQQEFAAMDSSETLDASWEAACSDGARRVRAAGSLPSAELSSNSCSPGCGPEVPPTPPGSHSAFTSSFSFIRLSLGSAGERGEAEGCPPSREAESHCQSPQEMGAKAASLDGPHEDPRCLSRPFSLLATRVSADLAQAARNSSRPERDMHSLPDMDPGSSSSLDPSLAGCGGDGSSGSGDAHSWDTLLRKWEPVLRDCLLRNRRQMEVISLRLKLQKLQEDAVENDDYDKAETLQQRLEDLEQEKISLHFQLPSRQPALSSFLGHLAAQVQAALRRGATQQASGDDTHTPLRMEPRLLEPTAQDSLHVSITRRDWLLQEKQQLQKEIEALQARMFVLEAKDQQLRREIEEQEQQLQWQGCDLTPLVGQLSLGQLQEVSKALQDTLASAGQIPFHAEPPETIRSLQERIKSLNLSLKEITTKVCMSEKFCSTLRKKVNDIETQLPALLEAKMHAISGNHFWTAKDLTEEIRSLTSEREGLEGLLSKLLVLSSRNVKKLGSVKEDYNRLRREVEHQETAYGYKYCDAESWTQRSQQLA
B3: Myosin regulatory light polypeptide 9 (Homo sapiens), P24844 (parent)
chain: B1 partner

Variants of: B1
Details: with myl9_human MYL9, P24844

| Variant | effect of a mutation on the interaction |
| --- | --- |
| R828W | disrupting interaction strength |

Variants of: B2
Details: with DISC1, Q9NRI5-3

| Variant | effect of a mutation on the interaction |
| --- | --- |
| R828W | with no effect |

Variants of: B3
Details: with cc141_mouse Ccdc141, E9Q8Q6
Sequence of cc141_mouse Ccdc141, E9Q8Q6 (E9Q8Q6 whole entry): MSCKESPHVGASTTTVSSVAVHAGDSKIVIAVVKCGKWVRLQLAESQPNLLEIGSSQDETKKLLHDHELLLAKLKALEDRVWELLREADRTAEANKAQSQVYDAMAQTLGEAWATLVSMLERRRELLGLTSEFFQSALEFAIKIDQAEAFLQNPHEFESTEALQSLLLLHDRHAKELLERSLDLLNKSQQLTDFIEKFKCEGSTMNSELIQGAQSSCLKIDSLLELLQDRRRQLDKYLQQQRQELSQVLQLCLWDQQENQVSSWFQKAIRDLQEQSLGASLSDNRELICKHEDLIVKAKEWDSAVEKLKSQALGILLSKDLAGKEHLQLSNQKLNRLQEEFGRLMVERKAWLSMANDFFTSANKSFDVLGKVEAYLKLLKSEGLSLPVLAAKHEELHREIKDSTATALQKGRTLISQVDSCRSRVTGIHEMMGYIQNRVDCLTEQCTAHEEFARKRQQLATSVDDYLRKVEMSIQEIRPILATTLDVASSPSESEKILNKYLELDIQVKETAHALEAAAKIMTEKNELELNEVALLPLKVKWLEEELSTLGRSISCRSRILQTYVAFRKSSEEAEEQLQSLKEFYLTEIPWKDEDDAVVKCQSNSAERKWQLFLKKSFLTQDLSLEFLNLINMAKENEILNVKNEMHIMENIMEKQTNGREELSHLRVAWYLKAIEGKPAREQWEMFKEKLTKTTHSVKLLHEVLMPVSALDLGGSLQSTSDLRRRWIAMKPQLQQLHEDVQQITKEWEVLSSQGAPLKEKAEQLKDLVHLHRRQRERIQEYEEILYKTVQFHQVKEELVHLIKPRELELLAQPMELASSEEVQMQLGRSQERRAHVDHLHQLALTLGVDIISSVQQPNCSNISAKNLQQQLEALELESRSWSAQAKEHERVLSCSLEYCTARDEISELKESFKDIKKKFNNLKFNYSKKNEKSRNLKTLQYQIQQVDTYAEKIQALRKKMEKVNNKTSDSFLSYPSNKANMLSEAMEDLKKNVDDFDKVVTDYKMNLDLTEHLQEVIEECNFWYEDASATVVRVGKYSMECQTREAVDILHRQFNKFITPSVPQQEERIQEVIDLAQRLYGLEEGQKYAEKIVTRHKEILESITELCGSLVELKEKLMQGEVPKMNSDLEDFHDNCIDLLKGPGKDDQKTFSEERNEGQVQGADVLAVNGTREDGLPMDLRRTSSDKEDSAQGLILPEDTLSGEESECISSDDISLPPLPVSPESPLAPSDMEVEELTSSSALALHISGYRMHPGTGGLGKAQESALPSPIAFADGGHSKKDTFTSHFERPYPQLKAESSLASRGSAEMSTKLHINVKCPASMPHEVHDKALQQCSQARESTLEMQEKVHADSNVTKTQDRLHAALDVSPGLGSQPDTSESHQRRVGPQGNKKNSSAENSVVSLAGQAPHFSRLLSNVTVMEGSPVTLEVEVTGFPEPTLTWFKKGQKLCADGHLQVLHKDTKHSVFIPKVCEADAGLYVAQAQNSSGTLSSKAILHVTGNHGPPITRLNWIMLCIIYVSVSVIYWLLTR

| Variant | effect of a mutation on the interaction |
| --- | --- |
| MSSKRAKAKTTKKRPQRADDNVFAMFDQSQIQEFKEAFNMIDQNRDGFIDKEDLHDMLASLGKNPTDEYLEGMMSEAPGPINFTMFLTMFGEKLNGTDPEDVIRNAFACFDEEASGFIHEDHLRELLTTMGDRFTDEEVDEMYREAPIDKKGNFNYVEFTRILKHGAKDKDD [T19D;S20D] | increasing interaction strength |
| MSSKRAKAKTTKKRPQRAAANVFAMFDQSQIQEFKEAFNMIDQNRDGFIDKEDLHDMLASLGKNPTDEYLEGMMSEAPGPINFTMFLTMFGEKLNGTDPEDVIRNAFACFDEEASGFIHEDHLRELLTTMGDRFTDEEVDEMYREAPIDKKGNFNYVEFTRILKHGAKDKDD [T19A;S20A] | disrupting interaction strength |
